{
  "source": "patent US20070224662",
  "proteins": {"B1": {"name": "MKK6 (no-tag upstream kinase) (protein)", "chain": "MSQSKGKKRNPGLKIPKEAFEQPQTSSTPPRDLDSKACISIGNQNFEVKADDLEPIMELGRGAYGVVEKMRHVPSGQIMAVKRIRATVNSQEQKRLLMDLDISMRTVDCPFTVTFYGALFREGDVWICMELMDTSLDKFYKQVIDKGQTIPEDILGKIAVSIVKALEHLHSKLSVIHRDVKPSNVLINALGQVKMCDFGISGYLVDSVAKTIDAGCKPYMAPERINPELNQKGYSVKSDIWSLGITMIELAILRFPYDSWGTPFQQLKQVVEEPSPQLPADKFSAEFVDFTSQCLKKNSKERPTYPELMQHPFFTLHESKGTDVASFVKLILGD"}},
  "target": "inactive (non-phosphorylated) HIS-tagged MAPK14",
  "sequence (chain, as listed by the source)": "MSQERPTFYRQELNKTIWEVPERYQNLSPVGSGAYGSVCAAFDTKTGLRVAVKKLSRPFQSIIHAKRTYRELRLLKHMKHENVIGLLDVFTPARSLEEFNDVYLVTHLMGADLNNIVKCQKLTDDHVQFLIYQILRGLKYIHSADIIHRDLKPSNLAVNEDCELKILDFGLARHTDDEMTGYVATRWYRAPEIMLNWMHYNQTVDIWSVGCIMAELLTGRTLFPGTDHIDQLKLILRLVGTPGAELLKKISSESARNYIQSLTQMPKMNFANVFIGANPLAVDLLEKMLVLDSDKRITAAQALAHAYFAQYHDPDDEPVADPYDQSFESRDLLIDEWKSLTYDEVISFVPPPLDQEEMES",
  "data": [
    {"protein": "B1", "values": [
      {"measurement": "amount of phosphorylated MAPK14, Western blot with the p38 antibody, at decreasing MKK6 plasmid (FIG. 3)", "result": "as the concentration of the MKK6 plasmid present in the reaction was decreased, the amount of phosphorylation MAPK14 similarly decreased"},
      {"measurement": "phosphorylation of MAPK14, Western blot with anti-phospho-p38 antibody (FIG. 2)", "result": "co-expression of MAPK14 with MKK6 in the presence of an HEK 293 cell extract greatly enhances the phosphorylation of proteins present in the reaction"}
    ]}
  ]
}
